Source: PMC10113271 (2023)
Where no end group is shown, it is not given here. The star is where a group is joined. FITC = O=C1OC2(c3ccc(O)cc3Oc3cc(O)ccc32)c2ccc(NC(=S)*)cc21; βAla = NCCC(=O)O

Target: KIX domain of CREB-binding protein (residues 586–672 of mouse CBP) (mouse, UniProt P45481 586-672)
Assay: FP

Sequence of KIX domain of CREB-binding protein (residues 586–672 of mouse CBP) (P45481 586-672): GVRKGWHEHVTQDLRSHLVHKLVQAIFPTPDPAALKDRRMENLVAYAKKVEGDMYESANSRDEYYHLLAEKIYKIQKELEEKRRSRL

{FITC-βAla}-GYNDEDPEKEKRIKELELLLMSTENELKGQQAL [FITC-labeled c-Myb TAD peptide]
Kd: 59 nM
